Laboratory results published in the supplement of paper PMC12764529.
± gives the half width of the 95% confidence interval.

Key:
[1] = folding stability dG unfold (combined trypsin and chymotrypsin); higher = more stable
How it was run: (§1)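 Mini-proteins designed to be under 80 residues and free of cysteine were carried in a PA-tagged cDNA display construct and digested with trypsin and with chymotrypsin. Each protease was applied at 11 threefold-diluted concentrations, alongside a no-protease condition, before sequencing. K50 came from Bayesian fitting of the sequencing counts, and unfolding free energy was obtained by comparing it with a sequence-predicted unfolded-state K50 and a shared folded-state K50, for each protease separately or for both together. Designs were retained only if their AlphaFold2 dimer inter-PAE exceeded 15.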

[2] = folding stability dG unfold from chymotrypsin proteolysis; higher = more stable
How it was run: as §1

[3] = folding stability dG unfold from trypsin proteolysis; higher = more stable
How it was run: as §1

For “SAGMVVIEVKKDEVPVDPEKALVFEFGDKRYILVDGEKAEEIKDAFPNLDIKIKPVSPEELEKLLKAHSAGG [r19_271_TrMRF]”, the “folding stability dG unfold” value [1] was 1.27 ± 0.14 kcal/mol, the “folding stability dG unfold” value [2] was 1.34 ± 0.1 kcal/mol and the “folding stability dG unfold” value [3] was 1.18 ± 0.051 kcal/mol.
In the case of “SAGGSAGGSAGMVIELPDGRKAIIVKYDKETKRFYVEIVDKKTGEKKIYEFKSLEEALKASAGGSAGGSAGG [r17_300_TrROS_Hall]”, the “folding stability dG unfold” value [1] is reported as 2.79 ± 0.15 kcal/mol, the “folding stability dG unfold” value [2] is reported as 2.86 ± 0.092 kcal/mol and the “folding stability dG unfold” value [3] is reported as 2.18 ± 0.16 kcal/mol.
For “SELVEKAAEKGVKEIHIYLSEEQREAILKAADAGVKITIHLPEGATVEELKALPGIKVDKVEVFSPEELKSA [r9_671_TrROS_Hall]”, the “folding stability dG unfold” value [1] was 0.0735 ± 0.14 kcal/mol, the “folding stability dG unfold” value [2] was -0.078 ± 0.082 kcal/mol and the “folding stability dG unfold” value [3] was 0.273 ± 0.044 kcal/mol.
For “SAGGSAGGSAGGTGPDTPVTIETTVESVVYEGPEVKVVETFEKKITVTIPPTANPEKVSLSAGGSAGGSAGG [r7_591_JUSTAS]”, the “folding stability dG unfold” value [1] was under -1 kcal/mol, the “folding stability dG unfold” value [2] was -1.06 ± 0.31 kcal/mol and the “folding stability dG unfold” value [3] was -0.81 ± 0.43 kcal/mol.
In the case of “SAGGSSSMVTRTPSTSTVTVKRGNGPVTVSLPTTVVTRPDGSRTLETTVDTKDPAGNPAATTVTPAPSAGGS [r16_581_JUSTAS]”, the “folding stability dG unfold” value [1] is reported as 0.643 ± 0.093 kcal/mol, the “folding stability dG unfold” value [2] is reported as 0.98 ± 0.048 kcal/mol and the “folding stability dG unfold” value [3] is reported as 0.0362 ± 0.1 kcal/mol.
In the case of “SLRDIAKEIAEKAGMDPEDVEINVETEPDPKNGKPRLRITVSIEHPNRKYMIKIDFQDGEIEEIMPLEDISA [r9_1219_TrROS]”, the “folding stability dG unfold” value [1] is reported as 1.74 ± 0.3 kcal/mol, the “folding stability dG unfold” value [2] is reported as 1.97 ± 0.089 kcal/mol and the “folding stability dG unfold” value [3] is reported as 1.66 ± 0.099 kcal/mol.
In the case of “SAGDDLKIKKVEIQINPEHGYISVTFRIDGYEVQIMYDVDPKNGPITMDIYYPGKPIGEFTIPLNDIKISAG [r5_415_TrROS]”, the “folding stability dG unfold” value [1] is reported as 2.68 ± 0.1 kcal/mol, the “folding stability dG unfold” value [2] is reported as 3.01 ± 0.05 kcal/mol and the “folding stability dG unfold” value [3] is reported as 1.78 ± 0.083 kcal/mol.
With “SAGGSAGGSAGGAPEKEVTVRVRITVFRDGKPVEEIELEPGQTLTFPPGARVVIEVELLPSAGGSAGGSAGG [r7_141_TrROS_Hall]” the “folding stability dG unfold” value [1] was 3.39 ± 0.17 kcal/mol, the “folding stability dG unfold” value [2] was 3.51 ± 0.12 kcal/mol and the “folding stability dG unfold” value [3] was 3 ± 0.13 kcal/mol.
In the case of “SAGMKIKITLPNGAEFESNPETGKIEVIDPETGKPLIAYIPKDRPDIAFIFDPDNPKPLFEVKIDEIYPSAG [r5_761_TrMRF]”, the “folding stability dG unfold” value [1] is reported as 1.11 ± 0.051 kcal/mol, the “folding stability dG unfold” value [2] is reported as 1.27 ± 0.042 kcal/mol and the “folding stability dG unfold” value [3] is reported as 0.889 ± 0.016 kcal/mol.
For “SAGGSLFEKLNVKSVEVTEVKTYTLPPLPLTVEVPTVKVTLPDGTVIEFTVIKTYDPEDPTPTVTLGSAGGS [r8_422_JUSTAS]”, the “folding stability dG unfold” value [1] was 1.08 ± 0.07 kcal/mol, the “folding stability dG unfold” value [2] was 1.31 ± 0.12 kcal/mol and the “folding stability dG unfold” value [3] was 0.822 ± 0.027 kcal/mol.
With “SAGGSAGGSAGGKSYTDPNSNTVTTLDEGPGFGKVTTTTYKPEEPVPLETTESIIGPVLSSAGGSAGGSAGG [r7_343_JUSTAS]” the “folding stability dG unfold” value [1] was 0.273 ± 0.24 kcal/mol, the “folding stability dG unfold” value [2] was -0.026 ± 0.11 kcal/mol and the “folding stability dG unfold” value [3] was 0.367 ± 0.04 kcal/mol.
For “SAGGSAGGSDKVVEFTFKIPSKDITAEDIAKAVKEAFPGVKKIEVTLYPGEGTAKVKVYLEPSSAGGSAGGS [r20_31_TrMRF]”, the “folding stability dG unfold” value [1] was 4.29 ± 0.18 kcal/mol, the “folding stability dG unfold” value [2] was 4.44 ± 0.088 kcal/mol and the “folding stability dG unfold” value [3] was 3.52 ± 0.16 kcal/mol.
For “SPSTTVETTVTIPYTYRLPDGTVLEYNLTISVTASLTNGGISTGDLKSAIDTALAAANIPPGPPDLPLLLRS [r1_175_JUSTAS]”, the “folding stability dG unfold” value [1] was 1.83 ± 0.096 kcal/mol, the “folding stability dG unfold” value [2] was 2.31 ± 0.098 kcal/mol and the “folding stability dG unfold” value [3] was 0.738 ± 0.13 kcal/mol.
In the case of “SAGGSAGGSAGGAPPPPVKVKVVEIEEEGGERRIRVENEDTGEVVELRVPKGAEVLEELSAGGSAGGSAGGS [r10_1038_TrROS_Hall]”, the “folding stability dG unfold” value [1] is reported as 1.23 ± 0.16 kcal/mol, the “folding stability dG unfold” value [2] is reported as 1.37 ± 0.055 kcal/mol and the “folding stability dG unfold” value [3] is reported as 1.32 ± 0.048 kcal/mol.
For “SAGGSPGQPYYIMIKLEWENPEDGEEHTFDIMFPVKSAEDAKDYILKELLPPGHKLKIDDISIMPMSAGGSA [r2_320_TrROS]”, the “folding stability dG unfold” value [1] was 1.4 ± 0.15 kcal/mol, the “folding stability dG unfold” value [2] was 1.19 ± 0.1 kcal/mol and the “folding stability dG unfold” value [3] was 1.48 ± 0.022 kcal/mol.
With “SAGGSAGGSYYMIEIEFPDTGQRITFPFKSLEEAKEFLPPGAPIREIEVQPIKPPVDPEQQNESAGGSAGGS [r12_851_TrROS]” the “folding stability dG unfold” value [1] was 1.24 ± 0.11 kcal/mol, the “folding stability dG unfold” value [2] was 1.31 ± 0.12 kcal/mol and the “folding stability dG unfold” value [3] was 0.809 ± 0.054 kcal/mol.
With “SAGGSAMPPGEPIGSFSFPFNNGGNLMISAYPGGEIKISWWGPDGRPHEHEFPVKVKPPPPEDEGKSAGGSA [r15_478_TrROS]” the “folding stability dG unfold” value [1] was 1.6 ± 0.19 kcal/mol, the “folding stability dG unfold” value [2] was 1.64 ± 0.07 kcal/mol and the “folding stability dG unfold” value [3] was 1.33 ± 0.053 kcal/mol.
With “SAGGSAGGSAGNDVINKKYTYTITETTEEKTPTDDPVSTTITTPIEITVKAPKDEVVIPDSAGGSAGGSAGG [r11_174_JUSTAS]” the “folding stability dG unfold” value [1] was 0.31 ± 0.22 kcal/mol, the “folding stability dG unfold” value [2] was 0.644 ± 0.25 kcal/mol and the “folding stability dG unfold” value [3] was -0.6 ± 0.15 kcal/mol.
For “SAGGSAGGSAGGGPAPGKGLVVKLEPEEFEFENFRLIVVKAVKDDKLIAEIAYLISPDESAGGSAGGSAGGS [r10_628_TrMRF]”, the “folding stability dG unfold” value [1] was 0.904 ± 0.12 kcal/mol, the “folding stability dG unfold” value [2] was 0.823 ± 0.18 kcal/mol and the “folding stability dG unfold” value [3] was 1.05 ± 0.12 kcal/mol.
For “SAGGSAGGSSAVVPLPDVVLVVLTFPDGGPPVLALLFPPTGRVVFVHPDSVTVAPFAPGGSLLSAGGSAGGS [r12_536_TrMRF]”, the “folding stability dG unfold” value [1] was 1.51 ± 0.07 kcal/mol, the “folding stability dG unfold” value [2] was 1.74 ± 0.062 kcal/mol and the “folding stability dG unfold” value [3] was 1.1 ± 0.036 kcal/mol.
For “SAGGSAGGMKVEVVFLVPGEVFSKFTPPLSEDDPVLLVLVFDVPAPPPVPRYVYDPETGEWRPESAGGSAGG [r6_211_TrMRF]”, the “folding stability dG unfold” value [1] was 3.22 ± 0.11 kcal/mol, the “folding stability dG unfold” value [2] was 3.72 ± 0.099 kcal/mol and the “folding stability dG unfold” value [3] was 2.39 ± 0.047 kcal/mol.
